Experimental data: IntAct's records for PubMed 16278218

B1: Heat shock factor protein 1 (Homo sapiens), Q00613 (parent)
chain: MDLPVGPGAAGPSNVPAFLTKLWTLVSDPDTDALICWSPSGNSFHVFDQGQFAKEVLPKYFKHNNMASFVRQLNMYGFRKVVHIEQGGLVKPERDDTEFQHPCFLRGQEQLLENIKRKVTSVSTLKSEDIKIRQDSVTKLLTDVQLMKGKQECMDSKLLAMKHENEALWREVASLRQKHAQQQKVVNKLIQFLISLVQSNRILGVKRKIPLMLNDSGSAHSMPKYSRQFSLEHVHGSGPYSAPSPAYSSSSLYAPDAVASSGPIISDITELAPASPMASPGGSIDERPLSSSPLVRVKEEPPSPPQSPRVEEASPGRPSSVDTLLSPTALIDSILRESEPAPASVTALTDARGHTDTEGRPPSPPPTSTPEKCLSVACLDKNELSDHLDAMDSNLDNLQTMLSSHGFSVDTSALLDLFSPSVTVPDMSLPDLDSSLASIQELLSPQEPPRPPEAENSSPDSGKQLVHYTAQPLFLLDPGSVDTGSNDLPVLFELGEGSYFSEGDGFAEDPTISLLTGSEPPKAKDPTVS

Variants of: B1
Conditions: with mapk2_human MAPKAPK2, P49137
Sequence of mapk2_human MAPKAPK2, P49137 (P49137 whole entry, looked up): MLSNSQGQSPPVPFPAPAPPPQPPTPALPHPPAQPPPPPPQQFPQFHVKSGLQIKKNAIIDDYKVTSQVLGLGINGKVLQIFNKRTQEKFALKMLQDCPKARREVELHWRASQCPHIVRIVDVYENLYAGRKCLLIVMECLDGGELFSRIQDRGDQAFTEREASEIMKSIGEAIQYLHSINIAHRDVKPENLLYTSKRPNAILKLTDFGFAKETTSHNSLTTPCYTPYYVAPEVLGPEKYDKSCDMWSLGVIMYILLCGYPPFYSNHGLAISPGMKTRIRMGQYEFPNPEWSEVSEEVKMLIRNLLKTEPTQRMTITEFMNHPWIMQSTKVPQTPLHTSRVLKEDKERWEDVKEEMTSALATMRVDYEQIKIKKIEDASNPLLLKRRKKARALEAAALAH

Variant	effect of a mutation on the interaction
S121A	increasing interaction
S121D	decreasing interaction
